Reference: PMC4072508, “Genome-Wide Prediction and Validation of Peptides That Bind Human Prosurvival Bcl-2 Proteins” (PLoS Computational Biology, 2014)

T1: Mcl-1, Q07820
T1 chain: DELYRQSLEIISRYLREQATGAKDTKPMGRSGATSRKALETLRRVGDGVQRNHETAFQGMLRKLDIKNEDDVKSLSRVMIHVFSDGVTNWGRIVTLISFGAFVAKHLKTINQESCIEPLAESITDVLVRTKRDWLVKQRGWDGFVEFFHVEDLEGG

T2: Bfl-1, Q16548
T2 chain: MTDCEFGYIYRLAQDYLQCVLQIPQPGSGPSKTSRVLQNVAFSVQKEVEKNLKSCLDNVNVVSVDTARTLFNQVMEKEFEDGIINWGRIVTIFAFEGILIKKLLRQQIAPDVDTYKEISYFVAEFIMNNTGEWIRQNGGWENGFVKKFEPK


Target: T1, Mcl-1, Q07820
Assay: peptide SPOT array, c-Myc-tagged receptor at 1 uM or 100 nM, anti-c-Myc-Cy3

Binder	SPOT signal as a fraction of Bim BH3's signal on the same receptor and array
ELLYGIWSNCDGLISDSFHMFFDSTA	0.05
TAAAAYRGAHDRGRGRTVYNTFRAAA	1.43
LLDFFMVSILDSKLGDLLHKLQFVLT [PCNXL2]	0.06
FTCKNKFCKPLFWVLDSVNDCGDNSD [ST14]	0.27
KKLKNLEGNEDQRHADEFLLDLGHHE [FUT8]	0.04
ELDEDDLEAEDDALGDELLADEDSSY [CHMP5]	0.03
LNLLMISVAFLRVILDQLEKLCDSLL [SLC38A8]	0.04
SQGKHGFTMAMNAFLDMTNEEFRQMM [CTSL2]	0.11
ELLYGIWSNCLGLISDSFHMFFDSTA	0.06
EAVTDGLKRALRSFLNALGNCILDKD [RAD52]	0.08
VTLLSEVEKMDSNFGDCVQYKEIVKN [SYNE1]	0.05
PSECETLGSNLGHNLDLLNENNILAK [ZFP90]	0.04
MPYMEAVIHEDQRFGDVIPMSLARRV [CYP2A6]	0.07
THFLDEEVKLDKKMGDHLTNLHRLGG [FTL]	0.05
GGRVKLVHSALIQLLDSLSHKGNEFW	0.23
GGRVKLVHSADIQLGDSLSHKGNEFW	0.23

Binder	SPOT signal as a fraction of Bim BH3's signal on the same receptor and array
LWAAQRYGREDRRMSDEFVDSFKKGL [BAD]	0.51
ADVHGIWSRLDCDFGDEFEVLDTTGE [UBA6]	0.04
MSILTIASAVDEFVGDGIYNNTMGHV [TAP1]	0.04
ISSLDLLPYGLRYILKVLKNSIHEKF [IQGAP2]	0.66
LDFTFVCPTEIIAFLDRLEEFRSINT [PRDX4]	0.05
SGLPGLSSVDDNNFGDSINESEGIPL	0.03
VLAPVQLGKWLVLFLDEINLPDMDKY [DYNC1H1]	0.08
RMIVDCVSSHDKKTGDGAKTFIIFLC [BBS10]	0.08
MSLFLRVVFSFTMFLDLFEEEYSTVS [USP40]	0.06
SDIRDDISEQVRHVLRTVRGHPRKKL [TMEM184C]	0.31
GSPDSMFGISDAVLGDLNQDGFPDIA [ITGA7]	0.03
RAKASSLSEELKHFLDGLETDGTLQK [DSN1]	0.18
SSTMGQVGRQDAIIGDDINRRYDSEF [BAK1]	0.01
VLELHPGAQRLHIGLDEVYYLGEGEA [HEXDC]	0.05
SGLPGLSSVDINNFLDSINESEGIPL	0.04
GTAVAYRGAHLRGRLRAVYNTFRAAP	1.44

target: Bcl-xL, Q07817; assay: as above
Sequence (Q07817 1-209): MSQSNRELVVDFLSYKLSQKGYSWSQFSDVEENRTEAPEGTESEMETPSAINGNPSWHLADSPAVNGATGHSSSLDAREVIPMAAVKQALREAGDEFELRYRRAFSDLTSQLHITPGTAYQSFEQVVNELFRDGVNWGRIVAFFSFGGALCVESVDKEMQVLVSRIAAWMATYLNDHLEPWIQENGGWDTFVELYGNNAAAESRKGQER

Binder	SPOT signal as a fraction of Bim BH3's signal on the same receptor and array
ELLYGIWSNCDGLISDSFHMFFDSTA	0.06
TAAAAYRGAHDRGRGRTVYNTFRAAA	2.54
LLDFFMVSILDSKLGDLLHKLQFVLT [PCNXL2]	0.09
FTCKNKFCKPLFWVLDSVNDCGDNSD [ST14]	0.23
KKLKNLEGNEDQRHADEFLLDLGHHE [FUT8]	0.07
ELDEDDLEAEDDALGDELLADEDSSY [CHMP5]	0.06
LNLLMISVAFLRVILDQLEKLCDSLL [SLC38A8]	0.07
SQGKHGFTMAMNAFLDMTNEEFRQMM [CTSL2]	0.07
ELLYGIWSNCLGLISDSFHMFFDSTA	0.07
EAVTDGLKRALRSFLNALGNCILDKD [RAD52]	0.08
VTLLSEVEKMDSNFGDCVQYKEIVKN [SYNE1]	0.09
PSECETLGSNLGHNLDLLNENNILAK [ZFP90]	0.1
MPYMEAVIHEDQRFGDVIPMSLARRV [CYP2A6]	0.07
THFLDEEVKLDKKMGDHLTNLHRLGG [FTL]	0.07
GGRVKLVHSALIQLLDSLSHKGNEFW	0.28
GGRVKLVHSADIQLGDSLSHKGNEFW	0.2

Binder	SPOT signal as a fraction of Bim BH3's signal on the same receptor and array
LWAAQRYGREDRRMSDEFVDSFKKGL [BAD]	0.53
ADVHGIWSRLDCDFGDEFEVLDTTGE [UBA6]	0.06
MSILTIASAVDEFVGDGIYNNTMGHV [TAP1]	0.06
ISSLDLLPYGLRYILKVLKNSIHEKF [IQGAP2]	0.86
LDFTFVCPTEIIAFLDRLEEFRSINT [PRDX4]	0.05
SGLPGLSSVDDNNFGDSINESEGIPL	0.08
VLAPVQLGKWLVLFLDEINLPDMDKY [DYNC1H1]	0.08
RMIVDCVSSHDKKTGDGAKTFIIFLC [BBS10]	0.17
MSLFLRVVFSFTMFLDLFEEEYSTVS [USP40]	0.06
SDIRDDISEQVRHVLRTVRGHPRKKL [TMEM184C]	0.88
GSPDSMFGISDAVLGDLNQDGFPDIA [ITGA7]	0.07
RAKASSLSEELKHFLDGLETDGTLQK [DSN1]	0.26
SSTMGQVGRQDAIIGDDINRRYDSEF [BAK1]	0.02
VLELHPGAQRLHIGLDEVYYLGEGEA [HEXDC]	0.06
SGLPGLSSVDINNFLDSINESEGIPL	0.11
GTAVAYRGAHLRGRLRAVYNTFRAAP	2.49

Target: T2, Bfl-1, Q16548
Assay: as above

Binder	SPOT signal as a fraction of Bim BH3's signal on the same receptor and array
ELLYGIWSNCDGLISDSFHMFFDSTA	0.05
TAAAAYRGAHDRGRGRTVYNTFRAAA	1.4
LLDFFMVSILDSKLGDLLHKLQFVLT [PCNXL2]	0.04
FTCKNKFCKPLFWVLDSVNDCGDNSD [ST14]	0.12
KKLKNLEGNEDQRHADEFLLDLGHHE [FUT8]	0.04
ELDEDDLEAEDDALGDELLADEDSSY [CHMP5]	0.03
LNLLMISVAFLRVILDQLEKLCDSLL [SLC38A8]	0.05
SQGKHGFTMAMNAFLDMTNEEFRQMM [CTSL2]	0.06
ELLYGIWSNCLGLISDSFHMFFDSTA	0.06
EAVTDGLKRALRSFLNALGNCILDKD [RAD52]	0.04
VTLLSEVEKMDSNFGDCVQYKEIVKN [SYNE1]	0.05
PSECETLGSNLGHNLDLLNENNILAK [ZFP90]	0.04
MPYMEAVIHEDQRFGDVIPMSLARRV [CYP2A6]	0.04
THFLDEEVKLDKKMGDHLTNLHRLGG [FTL]	0.03
GGRVKLVHSALIQLLDSLSHKGNEFW	0.23
GGRVKLVHSADIQLGDSLSHKGNEFW	0.24

Binder	SPOT signal as a fraction of Bim BH3's signal on the same receptor and array
LWAAQRYGREDRRMSDEFVDSFKKGL [BAD]	0.3
ADVHGIWSRLDCDFGDEFEVLDTTGE [UBA6]	0.03
MSILTIASAVDEFVGDGIYNNTMGHV [TAP1]	0.03
ISSLDLLPYGLRYILKVLKNSIHEKF [IQGAP2]	0.6
LDFTFVCPTEIIAFLDRLEEFRSINT [PRDX4]	0.04
SGLPGLSSVDDNNFGDSINESEGIPL	0.04
VLAPVQLGKWLVLFLDEINLPDMDKY [DYNC1H1]	0.07
RMIVDCVSSHDKKTGDGAKTFIIFLC [BBS10]	0.09
MSLFLRVVFSFTMFLDLFEEEYSTVS [USP40]	0.04
SDIRDDISEQVRHVLRTVRGHPRKKL [TMEM184C]	0.34
GSPDSMFGISDAVLGDLNQDGFPDIA [ITGA7]	0.08
RAKASSLSEELKHFLDGLETDGTLQK [DSN1]	0.17
SSTMGQVGRQDAIIGDDINRRYDSEF [BAK1]	0.01
VLELHPGAQRLHIGLDEVYYLGEGEA [HEXDC]	0.04
SGLPGLSSVDINNFLDSINESEGIPL	0.04
GTAVAYRGAHLRGRLRAVYNTFRAAP	1.48
